From patent publication US12630618 (GEORGIA TECH RESEARCH, dated 2026)

Biological target: T1, human myocilin OLF (hMyoc-OLF), cleaved from its fusion tag (human, UniProt Q99972 244-503, limits assumed)
T1 construct: In Western blots the protein is denatured; also called hOLF; cleaved human myocilin OLF
T1 sequence: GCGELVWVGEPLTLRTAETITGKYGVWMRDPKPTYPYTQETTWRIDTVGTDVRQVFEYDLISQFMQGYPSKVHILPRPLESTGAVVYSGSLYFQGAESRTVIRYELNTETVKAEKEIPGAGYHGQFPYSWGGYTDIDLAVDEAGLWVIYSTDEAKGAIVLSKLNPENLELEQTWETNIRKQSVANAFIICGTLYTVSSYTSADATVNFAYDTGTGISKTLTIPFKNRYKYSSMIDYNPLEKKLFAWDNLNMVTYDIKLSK
Test: Western blot, denatured hMyoc-OLF, IgG

binding result: binds
B1: Monoclonal Antibody OLF2 (antibody, V domains shown)
VH: DVKLVESGGGLVKPGGSLKLSCAASGFTFSSYAMSWVRQTPDKRLEWVATISSGGSYTYYPDSVKGRFTISRDNAKNTLYLQMSSLKSEDTAMYYCARLGGGIFAYWGQGTLVTVSA
VL: DVLMTQTPLSLPVSLGDQASISCRSSQSIVHSNGNTYLEWYLQKPGQSPKLLIYKVSNRFSGVPDRFSGSGSGTDFTLKISRVEAEDLGVYYCFQGSHVPLTFGAGTKLEIKR
notes: also called anti-OLF2
